Target: transgene murine adenylylcyclase isoform VI (ACVI) with HA-tag, from the truncated construct of Example 5-2 (murine) (UniProt Q01341)
Test: cell-based or functional assay

Sequence of transgene murine adenylylcyclase isoform VI (ACVI) with HA-tag, from the truncated construct of Example 5-2 (murine) (Q01341 whole entry, the tested form may be a part, canonical isoform): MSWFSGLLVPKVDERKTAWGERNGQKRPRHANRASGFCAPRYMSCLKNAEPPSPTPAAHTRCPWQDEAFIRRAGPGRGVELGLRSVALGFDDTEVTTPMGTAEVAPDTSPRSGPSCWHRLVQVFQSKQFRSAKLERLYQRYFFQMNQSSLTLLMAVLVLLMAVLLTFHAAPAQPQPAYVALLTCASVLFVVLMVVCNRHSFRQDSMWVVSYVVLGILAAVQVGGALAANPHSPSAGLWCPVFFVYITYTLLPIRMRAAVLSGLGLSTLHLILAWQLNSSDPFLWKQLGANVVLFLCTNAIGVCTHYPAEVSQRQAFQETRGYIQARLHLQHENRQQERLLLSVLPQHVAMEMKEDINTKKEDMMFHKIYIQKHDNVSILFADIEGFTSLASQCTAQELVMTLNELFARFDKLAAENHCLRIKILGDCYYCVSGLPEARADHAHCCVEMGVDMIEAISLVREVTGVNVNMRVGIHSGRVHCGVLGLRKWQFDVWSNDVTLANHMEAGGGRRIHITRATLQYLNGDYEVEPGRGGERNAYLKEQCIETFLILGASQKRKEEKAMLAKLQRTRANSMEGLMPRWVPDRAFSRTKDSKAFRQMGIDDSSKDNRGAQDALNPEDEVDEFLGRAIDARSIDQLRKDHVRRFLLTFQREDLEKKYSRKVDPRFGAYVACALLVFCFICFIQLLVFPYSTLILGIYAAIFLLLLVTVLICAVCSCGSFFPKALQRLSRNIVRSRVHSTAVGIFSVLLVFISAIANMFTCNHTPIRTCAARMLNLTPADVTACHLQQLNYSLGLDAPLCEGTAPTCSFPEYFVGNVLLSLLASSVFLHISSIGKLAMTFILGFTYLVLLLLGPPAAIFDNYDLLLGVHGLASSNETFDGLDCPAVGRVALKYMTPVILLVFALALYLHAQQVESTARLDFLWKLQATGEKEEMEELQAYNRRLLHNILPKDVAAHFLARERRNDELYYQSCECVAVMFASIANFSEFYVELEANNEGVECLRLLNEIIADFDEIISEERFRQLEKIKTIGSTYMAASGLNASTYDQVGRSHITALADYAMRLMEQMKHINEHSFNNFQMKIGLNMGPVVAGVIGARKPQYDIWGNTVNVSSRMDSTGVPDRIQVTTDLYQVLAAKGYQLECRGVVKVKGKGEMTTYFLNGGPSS

Substance “Gs (stimulatory GTP-binding protein) of neonatal rat cardiac myocytes (from UniProt P63095 2-394)” has a Net GTP gamma S-stimulated forskolin binding of 447 cpm.
